Biological target: hANGPTL3(17-460)-His (human) (UniProt Q9Y5C1)
Assay: Biacore cross-competition, 25C; first antibody at 25 µg/ml on captured antigen

hANGPTL3(17-460)-His (human), sequence (Q9Y5C1 other isoform, or with tags, fused parts or gaps): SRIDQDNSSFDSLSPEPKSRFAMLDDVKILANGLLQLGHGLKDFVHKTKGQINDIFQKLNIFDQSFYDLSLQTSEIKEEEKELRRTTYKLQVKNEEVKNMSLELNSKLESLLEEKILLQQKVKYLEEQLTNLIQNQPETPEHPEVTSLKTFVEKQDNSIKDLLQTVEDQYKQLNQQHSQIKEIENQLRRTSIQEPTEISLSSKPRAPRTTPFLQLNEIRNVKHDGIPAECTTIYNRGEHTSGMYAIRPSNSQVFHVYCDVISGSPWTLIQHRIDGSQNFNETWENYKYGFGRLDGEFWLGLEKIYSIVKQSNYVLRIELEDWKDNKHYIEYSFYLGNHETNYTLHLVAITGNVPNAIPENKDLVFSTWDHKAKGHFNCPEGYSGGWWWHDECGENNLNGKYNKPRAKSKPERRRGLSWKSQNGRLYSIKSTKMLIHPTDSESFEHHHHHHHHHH

For Negative Control (Table 8) (antibody), which mAb1 binding response (RU) is on record?
The mAb1 binding response (RU) was 81 RU.
